Source: the supplement of paper PMC7877785
± gives the uncertainty stated by the source.

Test: self-splicing fitness, log relative to wild type (ln ratio); higher = more splicing; Tetrahymena group I intron in knt gene, E. coli kanamycin selection, DiMSum; sequences stand for … in CUCUCU…GGAGGGAAAAGUUAUCAGGCAUGCACCUGGUAGCUAGUCUUUAAACCAAUAGAUUGCAUCGGUUUAAAAGGCAAGACCGUCAAAUUGCGGGAAAGGGGUCAACAGCCGUUCAGUACCAAGUCUCAGGGGAAACUUUGAGAUGGCCUUGCAAAGGGUAUGGUAAUAAGCUGACGGACAUGGUCCUAACCACGCAGCCAAGUCCUAAGUCAACAGAUCUUCUGUUGAUAUGGAUGCAGUUCACAGACUAAAUGUCGGUCGGGGAAGAUGUAUUCUUCUCAUAAGAUAUAGUCGGACCUCUCCUUAAUGGGAGCUAGCGGAUGAAGUGAUGCAACACUGGAGCCGCUGGGAACUAAUUUGUAUGCGAAAGUAUAUUGAUUAGUUUUGGAGUACUCGUGGUCG
Method in brief: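 A randomised library covering all eight P1ex-region intron nucleotides was built with the intron in the knt kanamycin-resistance gene on pET-22b(+) and held in E. coli BL21(DE3). Cells were grown overnight at 37°C or 30°C on LB agar, with or without 25 μg/mL kanamycin, plus 100 μg/mL carbenicillin, 50 μM IPTG and 0.2% rhamnose, and pooled colonies were amplicon-sequenced on an Illumina HiSeq 2500. DiMSum fitness is the error-weighted combination of wild-type-normalised replicate fold changes, kanamycin versus none.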

Sequence	self-splicing fitness (ln) (30 °C)	self-splicing fitness (ln) (37 °C)
UCAAAGCAAUAUUACGGUCU	-2.68 ± 0.16	-1.58 ± 0.14
UCAAAGCAAUAUUACGUAGG	-1.07 ± 0.072	-0.463 ± 0.096
UCAAAGCAAUAUUACGUCUG	-1.05 ± 0.076	-0.306 ± 0.087
UCAAAGCAAUAUUACGUGUU	-3.06 ± 0.1	-2.8 ± 0.14
UCAAAGCAAUAUUACGUUAC	–	-2.01 ± 0.12
UCAAAGCAAUAUUACGUUUC	-4.09 ± 0.26	-3.15 ± 0.2
UCACAGCAAUAUUACGAAGC	-3.07 ± 0.21	–
UCACAGCAAUAUUACGAGCU	-3.32 ± 0.18	-2.37 ± 0.26
UCACAGCAAUAUUACGAGGC	-2.83 ± 0.14	-2.62 ± 0.16
UCACAGCAAUAUUACGCCCA	-1.47 ± 0.19	0.000225 ± 0.15
UCACAGCAAUAUUACGCCCG	-0.978 ± 0.12	-0.555 ± 0.14
UCACAGCAAUAUUACGCCGC	-3.57 ± 0.22	-2.69 ± 0.19
UCACAGCAAUAUUACGCCUC	-2.06 ± 0.35	–
UCACAGCAAUAUUACGCGAA	-1.74 ± 0.086	-0.538 ± 0.091
UCACAGCAAUAUUACGCGGU	-4.02 ± 0.13	-2.63 ± 0.13
UCACAGCAAUAUUACGCUGC	-2.78 ± 0.22	-2.09 ± 0.23
UCACAGCAAUAUUACGGAGU	-4.75 ± 0.33	-3.4 ± 0.23
UCACAGCAAUAUUACGGCAU	-4.11 ± 0.22	-2.26 ± 0.14
UCACAGCAAUAUUACGGGCG	-0.948 ± 0.094	-1.07 ± 0.093
UCACAGCAAUAUUACGGUAC	-3.57 ± 0.24	-2.6 ± 0.22
UCACAGCAAUAUUACGGUCC	-2.85 ± 0.21	-2.2 ± 0.2
UCACAGCAAUAUUACGUCAC	-3.17 ± 0.18	-1.64 ± 0.13
UCACAGCAAUAUUACGUGCA	-0.403 ± 0.067	0.0083 ± 0.085
UCACAGCAAUAUUACGUUCG	-1.07 ± 0.061	-0.209 ± 0.09
UCAGAGCAAUAUUACGAAGC	-2.55 ± 0.44	–

Sequence	self-splicing fitness (ln) (30 °C)	self-splicing fitness (ln) (37 °C)
UCAGAGCAAUAUUACGACAG	-2.53 ± 0.19	-2.92 ± 0.36
UCAGAGCAAUAUUACGAGGA	-2.47 ± 0.15	-1.83 ± 0.16
UCAGAGCAAUAUUACGAUCU	-3.62 ± 0.21	-2.88 ± 0.28
UCAGAGCAAUAUUACGCAAG	-1.74 ± 0.42	-1.48 ± 0.29
UCAGAGCAAUAUUACGCCCG	-2 ± 0.47	–
UCAGAGCAAUAUUACGCGCC	-2.37 ± 0.46	–
UCAGAGCAAUAUUACGCGCU	–	-1.62 ± 0.29
UCAGAGCAAUAUUACGCUGU	-2.98 ± 0.26	–
UCAGAGCAAUAUUACGGAAG	-3.05 ± 0.26	-3.41 ± 0.37
UCAGAGCAAUAUUACGGAUG	-3.87 ± 0.38	-2.06 ± 0.35
UCAGAGCAAUAUUACGGCGA	-0.324 ± 0.072	-0.417 ± 0.076
UCAGAGCAAUAUUACGGGCA	-3.11 ± 0.29	-1.77 ± 0.17
UCAGAGCAAUAUUACGGUGU	-4.01 ± 0.3	-2.25 ± 0.18
UCAGAGCAAUAUUACGUAUA	-3.46 ± 0.27	-2.44 ± 0.23
UCAGAGCAAUAUUACGUCUA	-3.04 ± 0.29	-2.35 ± 0.3
UCAGAGCAAUAUUACGUGUA	-2.57 ± 0.23	-2.18 ± 0.19
UCAGAGCAAUAUUACGUUAA	-3.58 ± 0.35	-2.61 ± 0.34
UCAGAGCAAUAUUACGUUGU	-3.38 ± 0.2	-3.51 ± 0.35
UCAUAGCAAUAUUACGAAAG	–	-1.84 ± 0.47
UCAUAGCAAUAUUACGAAAU	-2.86 ± 0.23	-2.58 ± 0.28
UCAUAGCAAUAUUACGACAG	-1.49 ± 0.13	-1.26 ± 0.15
UCAUAGCAAUAUUACGAGUU	-2.66 ± 0.34	-1.56 ± 0.36
UCAUAGCAAUAUUACGCCAU	-3.49 ± 0.36	-1.49 ± 0.33
UCAUAGCAAUAUUACGCGAG	-1.52 ± 0.15	-0.957 ± 0.15
UCAUAGCAAUAUUACGCUUA	–	-1.21 ± 0.26

Sequence	self-splicing fitness (ln) (30 °C)	self-splicing fitness (ln) (37 °C)
UCAUAGCAAUAUUACGGAUC	-3.73 ± 0.28	-2.38 ± 0.22
UCAUAGCAAUAUUACGGCGA	-0.178 ± 0.07	-0.102 ± 0.083
UCAUAGCAAUAUUACGGCGC	-2.63 ± 0.31	–
UCAUAGCAAUAUUACGGGGA	-1.54 ± 0.1	-0.546 ± 0.12
UCAUAGCAAUAUUACGGUCU	-3.49 ± 0.16	-2.31 ± 0.14
UCAUAGCAAUAUUACGGUUA	-1.37 ± 0.14	-0.36 ± 0.11
UCAUAGCAAUAUUACGUAAU	-3.87 ± 0.48	-2.61 ± 0.28
UCAUAGCAAUAUUACGUGUU	-3.81 ± 0.14	-1.57 ± 0.1
UCAUAGCAAUAUUACGUUCU	-2.79 ± 0.27	-2.32 ± 0.21
UCCAAGCAAUAUUACGAAAC	-3.13 ± 0.22	-2.95 ± 0.35
UCCAAGCAAUAUUACGACAU	-3.54 ± 0.021	-2.31 ± 0.036
UCCAAGCAAUAUUACGAUUA	-0.942 ± 0.11	-0.817 ± 0.11
UCCAAGCAAUAUUACGCACC	-4.36 ± 0.32	-1.94 ± 0.21
UCCAAGCAAUAUUACGCAGA	-1.58 ± 0.12	-0.571 ± 0.088
UCCAAGCAAUAUUACGCAUU	-4.05 ± 0.21	-2.35 ± 0.23
UCCAAGCAAUAUUACGCCAC	–	-1.13 ± 0.33
UCCAAGCAAUAUUACGCCAG	–	-1.9 ± 0.28
UCCAAGCAAUAUUACGCGAU	-4.34 ± 0.21	-2.24 ± 0.17
UCCAAGCAAUAUUACGCGCC	-3.47 ± 0.27	-2.31 ± 0.32
UCCAAGCAAUAUUACGCUCG	-4.74 ± 0.45	-2.28 ± 0.49
UCCAAGCAAUAUUACGCUCU	-3.44 ± 0.28	-1.75 ± 0.18
UCCAAGCAAUAUUACGGAAU	-3.72 ± 0.3	-2.97 ± 0.33
UCCAAGCAAUAUUACGGCCG	-2.7 ± 0.2	-1.41 ± 0.16
UCCAAGCAAUAUUACGGCGA	0.214 ± 0.078	0.225 ± 0.086
UCCAAGCAAUAUUACGUAAG	-4.14 ± 0.3	-2.37 ± 0.21

Sequence	self-splicing fitness (ln) (30 °C)	self-splicing fitness (ln) (37 °C)
UCCAAGCAAUAUUACGUACU	-3.94 ± 0.39	-2.54 ± 0.24
UCCAAGCAAUAUUACGUAGU	-1.27 ± 0.068	-0.483 ± 0.091
UCCAAGCAAUAUUACGUAUA	-2.19 ± 0.094	-1.29 ± 0.096
UCCAAGCAAUAUUACGUCUA	-2.26 ± 0.13	-0.9 ± 0.11
UCCAAGCAAUAUUACGUGCC	-3.87 ± 0.36	-2.28 ± 0.26
UCCAAGCAAUAUUACGUGCU	-3.49 ± 0.22	-2.76 ± 0.22
UCCAAGCAAUAUUACGUGUG	-2.08 ± 0.066	-1.75 ± 0.081
UCCCAGCAAUAUUACGAAUC	-2.49 ± 0.26	-1.93 ± 0.3
UCCCAGCAAUAUUACGAGUG	-3.66 ± 0.18	-1.79 ± 0.13
UCCCAGCAAUAUUACGAUAC	-2.17 ± 0.19	-2.45 ± 0.44
UCCCAGCAAUAUUACGAUCG	-3.52 ± 0.3	-2.79 ± 0.16
UCCCAGCAAUAUUACGCAGA	-0.882 ± 0.06	-0.0561 ± 0.073
UCCCAGCAAUAUUACGCCCU	-2.07 ± 0.15	-1.03 ± 0.21
UCCCAGCAAUAUUACGCCGU	-3.11 ± 0.22	-2.27 ± 0.21
UCCCAGCAAUAUUACGCCUG	-3.13 ± 0.26	-1.8 ± 0.23
UCCCAGCAAUAUUACGCGGG	-2.66 ± 0.12	-3.36 ± 0.18
UCCCAGCAAUAUUACGCUAG	-3.45 ± 0.18	-2.9 ± 0.34
UCCCAGCAAUAUUACGGAAG	-3.24 ± 0.12	-2.88 ± 0.23
UCCCAGCAAUAUUACGGCGG	-2.91 ± 0.16	-2.21 ± 0.18
UCCCAGCAAUAUUACGGUAU	-1.24 ± 0.059	-0.809 ± 0.08
UCCCAGCAAUAUUACGGUUC	-2.43 ± 0.11	-1.8 ± 0.14
UCCCAGCAAUAUUACGGUUG	-2.97 ± 0.17	-1.79 ± 0.15
UCCCAGCAAUAUUACGUACA	-1.92 ± 0.14	-0.819 ± 0.1
UCCCAGCAAUAUUACGUCUU	-2.99 ± 0.14	-2.76 ± 0.2
